Laboratory results reported in patent publication US20210388087A1 (Chugai, published 2021).
Where no end group is shown, it is not given here.

Key:
[1] = target: human CD137 expressed on cells (human, UniProt Q07011 24-255); assay: cell-based or functional assay
[2] = target: T1, Extracellular domain (24-186) of human CD137 (human, UniProt Q07011 24-186); assay: complex formation, gel filtration
T1 construct: Fc cleaved off; also called hCD137; CD137 extracellular domain

[3] = target: T2, Human CD137 ECD (human); assay: SPR Biacore T200, 37 C, Ab captured on anti-human Fc, antigen as analyte
T2 construct: also called human CD137 extracellular domain; recombinant human CD137

[4] = target: T3, Human CD3eg linker (human); assay: as above
T3 construct: Single chain: CD3 epsilon and gamma subunits joined by a 29-mer linker, Flag-tag at the C-terminus; also called recombinant human CD3
T3 chain: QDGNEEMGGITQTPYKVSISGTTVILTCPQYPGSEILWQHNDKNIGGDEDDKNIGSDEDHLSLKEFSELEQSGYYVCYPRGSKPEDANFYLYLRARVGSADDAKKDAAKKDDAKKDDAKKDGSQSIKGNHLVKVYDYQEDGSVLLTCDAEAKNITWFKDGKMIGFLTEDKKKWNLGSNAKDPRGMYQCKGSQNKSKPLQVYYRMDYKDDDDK

[5] = target: T4, human CD137-Fc (human, biotin-labeled); assay: bead ELISA on biotin-human CD137-Fc with 125 pmol/well free CD3e peptide as competitor;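 further: Streptavidin-coated magnetic beads in blocking buffer as the capture surface, well signal read as fluorescence 2 min after adding APS-5 substrate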
T4 construct: if 90 already holds the Fc, drop the second piece; also called biotin-labeled human CD137 fused to human IgG1 Fc fragment; biotin-human CD137-Fc; not shown: human IgG1 Fc fragment

[6] = target: T5, cyno CD137-Fc (cynomolgus monkey; human, limits assumed, biotin-labeled); assay: bead ELISA, IgG on biotinylated antigen, luminescence;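 further: biotinylated antigen captured on streptavidin magnetic beads, then incubated with purified IgG at 50 ng/µL for 1 h at room temperature before detection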
T5 construct: whole entry 92 named; also called biotin-labeled cynomolgus monkey CD137 fused to human IgG1 Fc fragment; not shown: human IgG1 Fc fragment
T5 chain: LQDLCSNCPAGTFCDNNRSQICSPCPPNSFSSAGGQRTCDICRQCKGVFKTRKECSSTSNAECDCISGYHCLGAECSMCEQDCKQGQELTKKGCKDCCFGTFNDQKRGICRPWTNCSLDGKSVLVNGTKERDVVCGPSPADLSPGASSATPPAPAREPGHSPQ

[7] = target: T4, human CD137-Fc; assay: as above
[8] = target: T6, Biotin-labeled CD3 epsilon peptide antigen (human, also: biotin-labeled, site not given here); assay: bead ELISA, IgG on biotinylated CD3 epsilon peptide, luminescence
T6 construct: also called CD3 peptide
T6 peptide: QDGNEEMGGITQTPY

[9] = target: T4, human CD137-Fc; assay: bead ELISA on biotin-human CD137-Fc with 62.5 pmol free human Fc (control competitor)
[10] = target: T4, human CD137-Fc; assay: bead ELISA on biotin-human CD137-Fc, 0 pmol free CD3e peptide
[11] = target: T4, human CD137-Fc; assay: bead ELISA on biotin-human CD137-Fc, 125 vs 0 pmol free CD3e peptide;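 further: target captured on streptavidin-coated magnetic beads, signal read as fluorescence 2 min after adding APS-5 substrate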
[12] = target: T4, human CD137-Fc; assay: bead ELISA on biotin-human CD137-Fc, free CD3e peptide vs free Fc
[13] = target: T4, human CD137-Fc; assay: bead ELISA on biotin-human CD137-Fc with 62.5 pmol free CD3e peptide as competitor
[14] = target: T7, biotin-labeled human CD137 fused to human IgG1 Fc fragment (human, UniProt Q07011 24-186, biotin-labeled); assay: ELISA on streptavidin beads, purified IgG
T7 construct: also called human CD137-Fc; biotin-human CD137-Fc; not shown: human IgG1 Fc fragment

B1: GPC3/CD137×CD3 trispecific antibody (other)
VH 1: QVQLQQWGAGLLKPSETLSLTCAVYGGSFSGYYWSWIRQSPEKGLEWIGEINHGGYVTYNPSLESRVTISVDTSKNQFSLKLSSVTAADTAVYYCARDYGPGNYDWYFDLWGRGTLVTVSS
VL 1: EIVLTQSPATLSLSPGERATLSCRASQSVSSYLAWYQQKPGQAPRLLIYDASNRATGIPARFSGSGSGTDFTLTISSLEPEDFAVYYCQQRSNWPPALTFGGGTKVEIK
VH 2: QVQLVESGGGLVQPGRSLRLSCAASGFTFSNAWMHWVRQAPGKGLEWVAQIKDRANSYNTYYAESVKGRFTISRDDSKNSIYLQMNSLKTEDTAVYYCRYVHYTTYAGSSFSYGVDAWGQGTTVTVSS
VL 2: DIVMTQSPLSLPVTPGEPASISCRSSQPLVHSNRNTYLHWYQQKPGQAPRLLIYKVSNRFSGVPDRFSGSGSGTDFTLKISRVEAEDVGVYYCGQGTQVPYTFGQGTKLEIK
VH 3: QVQLVQSGAEVKKPGASVTVSCKASGYTFTDYEMHWIRQPPGEGLEWIGAIDGPTPDTAYSEKFKGRVTLTADKSTSTAYMELSSLTSEDTAVYYCTRFYSYTYWGQGTLVTVSS
VL 3: DIVMTQSPLSLPVTPGEPASISCRSSQPLVHSNRNTYLHWYQQKPGQAPRLLIYKVSNRFSGVPDRFSGSGSGTDFTLKISRVEAEDVGVYYCGQGTQVPYTFGQGTKLEIK
Luminescence against CD137 positive cells relative to that against GPC3 positive cells, 1 nM [1]: ~107%
Luminescence against CD137 positive cells relative to that against GPC3 positive cells, 10 nM [1]: ~128%

B2: H0868L0581 Fab (Fab, V domains shown)
VH: QVQLVESGGGLVQPGRSLRLSCAASGFKFSNVWMHWVRQAPGKGLEWVAQIKDKYNAYAAYYAPSVKGRFTISRDDSKNSIYLQMNSLKTEDTAVYYCHYVHYASASTLLPAFGVDAWGQGTTVTVSS
VL: DIVMTQSPLSLPVTPGEPASISCQPSQEVVHMNRNTYLHWYQQKPGQAPRLLIYKVSNRFPGVPDRFSGSGSGTDFTLKISRVEAEDVGVYYCAQGTSHPFTFGQGTKLEIK
notes: Fab made by limited Lys-C digestion of the bivalent antibody; also called H0868L581; Fab fragment of H0868L0581
binding result [2]: binds

B3: GPC3/CD137xCD3 (bispecific antibody, V domains shown)
VH 1: QVQLQQWGAGLLKPSETLSLTCAVYGGSFSGYYWSWIRQSPEKGLEWIGEINHGGYVTYNPSLESRVTISVDTSKNQFSLKLSSVTAADTAVYYCARDYGPGNYDWYFDLWGRGTLVTVSS
VL 1: EIVLTQSPATLSLSPGERATLSCRASQSVSSYLAWYQQKPGQAPRLLIYDASNRATGIPARFSGSGSGTDFTLTISSLEPEDFAVYYCQQRSNWPPALTFGGGTKVEIK
VH 2: QVQLVESGGGLVQPGRSLRLSCAASGFTFSNAWMHWVRQAPGKGLEWVAQIKDRANSYNTYYAESVKGRFTISRDDSKNSIYLQMNSLKTEDTAVYYCRYVHYTTYAGSSFSYGVDAWGQGTTVTVSS
VL 2: DIVMTQSPLSLPVTPGEPASISCRSSQPLVHSNRNTYLHWYQQKPGQAPRLLIYKVSNRFSGVPDRFSGSGSGTDFTLKISRVEAEDVGVYYCGQGTQVPYTFGQGTKLEIK
VH 3: QVQLVQSGAEVKKPGASVTVSCKASGYTFTDYEMHWIRQPPGEGLEWIGAIDGPTPDTAYSEKFKGRVTLTADKSTSTAYMELSSLTSEDTAVYYCTRFYSYTYWGQGTLVTVSS
VL 3: DIVMTQSPLSLPVTPGEPASISCRSSQPLVHSNRNTYLHWYQQKPGQAPRLLIYKVSNRFSGVPDRFSGSGSGTDFTLKISRVEAEDVGVYYCGQGTQVPYTFGQGTKLEIK
notes: Fc gamma R silent Fc; also called GPC3/CD137 x CD3 trispecific antibody (2+1)
Kd [3]: 37.7 nM
koff [3]: 0.0206 s⁻¹
kon [3]: 547000 M⁻¹ s⁻¹
Kd [4]: 19.7 nM
koff [4]: 0.00161 s⁻¹
kon [4]: 81800 M⁻¹ s⁻¹

B4: DXDU01_3#051 (antibody, V domains shown)
VH: QVQLVESGGGLVQPGRSLRLSCAASGFTFSNAWMHWVRQAPGKGLEWVAQIKDRGQQYNAYYAPSVKGRFTISRDDSKNSIYLQMNSLKTEDTAVYYCHYVHYASASSVLPGYGVDAWGQGTTVTVSS
VL: DIVMTQSPLSLPVTPGEPASISCRSSQSLVHSNRNTYLHWYQQKPGQAPRLLIYKVSNRFSGVPDRFSGSGSGTDFTLKISRVEAEDVGVYYCGQGTQVPYTFGQGTKLEIK
notes: Human IgG1; light chain GLS3000 (kappa); also called dBBDu127
ELISA signal [5]: 2200
RLU [6]: 10900 RLU
S/N ratio (cyno CD137-Fc/Fc) [6]: 3.73
RLU [7]: 38100 RLU
S/N ratio (human CD137-Fc/Fc) [7]: 13.1
RLU [8]: 169000 RLU
S/N ratio (CD3 peptide/non coating) [8]: 145
ELISA signal [9]: 128000
ELISA signal [10]: 3230
Signal decrease [11]: 32%
Signal decrease [12]: 91.6%
ELISA signal [13]: 10800

B5: DADU01_3#018 (antibody, V domains shown)
VH: QVQLVESGGGLVQPGRSLRLSCAASGFTFSNAWMHWVRQAPGKGLEWVAQIKDRANSYNAYYAPSVKGRFTISRDDSKNSIYLQMNSLKTEDTAVYYCHYVHYSAASTLLPSFGVDAWGQGTTVTVSS
VL: DIVMTQSPLSLPVTPGEPASISCRSSQSLVHSNRNTYLHWYQQKPGQAPRLLIYKVSNRFSGVPDRFSGSGSGTDFTLKISRVEAEDVGVYYCGQGTQVPYTFGQGTKLEIK
notes: Human IgG1; light chain GLS3000 (kappa); also called dBBDu123
ELISA signal [5]: 1840
RLU [6]: 6200 RLU
S/N ratio (cyno CD137-Fc/Fc) [6]: 3.27
RLU [7]: 32800 RLU
S/N ratio (human CD137-Fc/Fc) [7]: 17.3
RLU [8]: 182000 RLU
S/N ratio (CD3 peptide/non coating) [8]: 149
ELISA signal [9]: 117000
ELISA signal [10]: 2750
Signal decrease [11]: 33%
Signal decrease [12]: 92.3%
ELISA signal [13]: 9020

B6: DXDU01_3#094 (antibody, V domains shown)
VH: QVQLVESGGGLVQPGRSLRLSCAASGFTFSNAWMHWVRQAPGKGLEWVAQIKDKGNAYAAYYAPSVKGRFTISRDDSKNSIYLQMNSLKTEDTAVYYCHYVHYASAAGGLPGFGVDAWGQGTTVTVSS
VL: DIVMTQSPLSLPVTPGEPASISCRSSQSLVHSNRNTYLHWYQQKPGQAPRLLIYKVSNRFSGVPDRFSGSGSGTDFTLKISRVEAEDVGVYYCGQGTQVPYTFGQGTKLEIK
notes: Human IgG1; light chain GLS3000 (kappa); also called dBBDu121
ELISA signal [5]: 1830
RLU [6]: 19100 RLU
S/N ratio (cyno CD137-Fc/Fc) [6]: 8.09
RLU [7]: 24200 RLU
S/N ratio (human CD137-Fc/Fc) [7]: 10.2
RLU [8]: 165000 RLU
S/N ratio (CD3 peptide/non coating) [8]: 141
ELISA signal [9]: 108000
ELISA signal [10]: 3610
Signal decrease [11]: 49.4%
Signal decrease [12]: 91.1%
ELISA signal [13]: 9660

B7: DADU01_3#001 (antibody, V domains shown)
VH: QVQLVESGGGLVQPGRSLRLSCAASGFTFSIAWMHWVRQAPGKGLEWVAQIKDRVNAYEAYYAPSVKGRFTISRDDSKNSIYLQMNSLKTEDTAVYYCRYVHYASYYDLLGYGGVDAWGQGTTVTVSS
VL: DIVMTQSPLSLPVTPGEPASISCRSSQSLVHSNRNTYLHWYQQKPGQAPRLLIYKVSNRFSGVPDRFSGSGSGTDFTLKISRVEAEDVGVYYCGQGTQVPYTFGQGTKLEIK
notes: Human IgG1; light chain GLS3000 (kappa); also called dBBDu126; dBBDu_126
ELISA signal [5]: 2610
RLU [6]: 1210 RLU
S/N ratio (cyno CD137-Fc/Fc) [6]: 0.687
RLU [7]: 95300 RLU
S/N ratio (human CD137-Fc/Fc) [7]: 54.1
RLU [8]: 198000 RLU
S/N ratio (CD3 peptide/non coating) [8]: 146
ELISA signal [9]: 81000
ELISA signal [10]: 116000
Signal decrease [11]: 97.8%
Signal decrease [12]: 81.3%
ELISA signal [13]: 15100

B8: DXDU01_3#019 (antibody, V domains shown)
VH: QVQLVESGGGLVQPGRSLRLSCAASGFTFSIAWMHWVRQAPGKGLEWVAQIKDKVNGYTAYYAESVKGRFTISRDDSKNSIYLQMNSLKTEDTAVYYCRYVHYAAYYDVLGYGGVDAWGQGTTVTVSS
VL: DIVMTQSPLSLPVTPGEPASISCRSSQSLVHSNRNTYLHWYQQKPGQAPRLLIYKVSNRFSGVPDRFSGSGSGTDFTLKISRVEAEDVGVYYCGQGTQVPYTFGQGTKLEIK
notes: Human IgG1; light chain GLS3000 (kappa); also called dBBDu125
ELISA signal [5]: 2060
RLU [6]: 5090 RLU
S/N ratio (cyno CD137-Fc/Fc) [6]: 1.56
RLU [7]: 77800 RLU
S/N ratio (human CD137-Fc/Fc) [7]: 23.8
RLU [8]: 191000 RLU
S/N ratio (CD3 peptide/non coating) [8]: 161
ELISA signal [9]: 172000
ELISA signal [10]: 61400
Signal decrease [11]: 96.7%
Signal decrease [12]: 92.5%
ELISA signal [13]: 12800

B9: dBBDu127 (antibody, human IgG1, V domains shown)
VH: QVQLVESGGGLVQPGRSLRLSCAASGFTFSNAWMHWVRQAPGKGLEWVAQIKDRGQQYNAYYAPSVKGRFTISRDDSKNSIYLQMNSLKTEDTAVYYCHYVHYASASSVLPGYGVDAWGQGTTVTVSS
VL: DIVMTQSPLSLPVTPGEPASISCRSSQSLVHSNRNTYLHWYQQKPGQAPRLLIYKVSNRFSGVPDRFSGSGSGTDFTLKISRVEAEDVGVYYCGQGTQVPYTFGQGTKLEIK
notes: human IgG1; GLS3000 light chain; also called DXDU01_3 #051; DXDU01_3_#051
binding result [14]: binds
